Source: US20250382355A1 (Merck Sharp & Dohme, published 2025)

B1: 15H7 VHH-Fc (Fc fusion)
chain: QVQLVESGGRLVQAGGSLRLSCAAPGRTFRNLTLGWFRQAPGKEREFVASTSWPDDEMTYYTDSVKGRFTISRDNAKNTVYLQMNSLKPEDTAVYYCAAASWSGRSTLSYDYDYWGQGTQVTVST
B2: 13C8 VHH-Fc (Fc fusion)
chain: QVQLVESGGGLVQAGGSLRLSCAASGRTVNKYMTGWFRQTPGKEREFVASIDWSSTTTHYANSVKGRFTISRDKVKNTVYLQMNGLKPEDTAVYYCAAHQDSSYGYTILPIDYDSWGQGTQVTVSS
B3: 5A6 VHH-Fc (Fc fusion)
chain: QVQLVESGGGLAQAGGSLRLSCATSGLTFSMSAMGWFRQAPGNEREFVGVINWNGGSSRYADSVRGRFTISRDNAKNTVYLQMNSLKPEDTGVYYCAADALNIGTGEVNPRLYDYWGQGTQVMVSS
B4: 9B2 VHH-Fc (Fc fusion)
chain: QVQLVESGGGLVQPGGSLRLSCAASGFTLDNYAIGWFRQAPGKEREGVSCISSSDGDTQYADSVKGRFTISRDNAKNTVYLQMNSLKPEDTAVYYCAVEKVYARSWFFHLCSELDFGSWGQGTQVTVSS
B5: 5D7 VHH-Fc (Fc fusion)
chain: QVQLVESGGGLVQAGGSLRLSCAASGRTGSRYIMGWFRQAPGKEREFVAAINWRGDSTYYADSVKGRFTIARDNAKNTAYLQMNSLKPEDTAVYYCVADRGESYYYTRSTEYTYWGQGTQVTVSS
B6: 5G11 VHH-Fc (Fc fusion)
chain: QVQLVESGGGLVQAGGSLRLSCAASGRTFSIYAVGWFRQAPGKERDFVAGITWSGGTTYYSDSVKGRFTISRDNAKNTVYLQMNNLKPEDTAIYYCAVDTYSMTLSARSYDYWGQGTQVTVSS
B7: 19E10 VHH-Fc (Fc fusion)
chain: QVQLVESGGGLVQPGGSLRLSCVASGSTISINSMGWYRQAPGKAREMVATITNDGPIKYADPVKGRFTISRDNPKNTVYLQMNSLKPEDTAVYYCVADRAYWLAGEWEYWGQGTQVTVSS
B8: 1A11 VHH-Fc (Fc fusion)
chain: QVQLVESGGGLVQAGGSLRLSCEVSGSIYSINSMGWYRQAPGKQRELVAGIVSDGRINYADSVKGRFTISRAKNTVYLQMNSLKPEDTAVYYCAADRAFVYAGDYDYLGQGTQVTVSS
B9: 7A9 VHH-Fc (Fc fusion)
chain: QVQLVESGGGLVQAGGSLRLSCSASGGTASRSAMGWFRQAPGKEREFVAGISRRNSGSTYVADSYEDSVKGRFTISRDNAKNTIYLQMNSLKPEDTAVYYCAAEPTLGWYVPRRSVEYEYWGQGTQVTVSS
B10: 10B8 VHH-Fc (Fc fusion)
chain: QVQLVESGGGLVQPGGSLRLSCAASGITLDYYAIAWFRQAPGKEREGVSCFCSSDGDIRYADSVKGRFTISRDNAKNTVYLQMNSLKPEDTAVYYCATERVYSSTWFFHRYSELDFGSWGRGTQVTVSS
B11: 15H1 VHH-Fc (Fc fusion)
chain: QVQLVESGGGLAQAGGSLRLSCASSGLIFSGSAMGWFRQAPGKEREFVGVISWNGRTTYADSVKGRFTISRDDAVNMVWLQMNNLKPEDTAVYYCAADHLNYGSGDVNPRTYDYWGQGTQVTVSS
B12: 11F8 VHH-Fc (Fc fusion)
chain: QVQLVESGGGLVQAGGSLRLSCAASGRTVGYYAVGWFRQAPGKERDFVAAISWSGRNTNYADSVTGRFTIFRDNAKNTVDLQMNSLKPEDTAVYYCAADYWNYGSGSEVPNNYDTWGQGTQVTVSS
B13: 8E9 VHH-Fc (Fc fusion)
chain: QVQLVESGGGLVEAGGSLRLSCVASGSSSSINAMGWYRQAPGKQRELVASISHDGETKYANSVKGRFTISRGNAKNTIYLQMNSLKPEDTAVYYCVGDVAWVVVAGEYDYWGQGTQVTVSS

These binders were tested against SARS-CoV prefusion-stabilized spike protein (SARS-CoV-PreS) (SARS-CoV, UniProt P59594 14-1190) (assay: ELISA).
B1 showed an EC50 of 0.08 nM. Work on B2 yielded an EC50 of 0.1 nM. With B3 the EC50 was 0.09 nM. In the case of B4, the EC50 is reported as 0.12 nM. B5 gave an EC50 of 0.04 nM. B6 was tested, and the EC50 was 0.18 nM. Work on B7 yielded an EC50 of 0.03 nM. B8 showed an EC50 of 0.05 nM. For B9, the EC50 was 0.06 nM. In the case of B10, the EC50 is reported as 0.13 nM. In the case of B11, the EC50 is reported as 0.06 nM. B12 was tested, and the EC50 was 0.18 nM. For B13, the EC50 was 0.08 nM.
